Data reported in FireProtDB (doi:10.1016/j.jmb.2004.09.091).

Settings: Dictyostelium discoideum, pH 6.7, Urea, Fluorescence, KH2PO4/K2HPO4 50 mM, reversible: Yes

Chain of Hisactophilin-1 wild type (P13231 whole entry, looked up): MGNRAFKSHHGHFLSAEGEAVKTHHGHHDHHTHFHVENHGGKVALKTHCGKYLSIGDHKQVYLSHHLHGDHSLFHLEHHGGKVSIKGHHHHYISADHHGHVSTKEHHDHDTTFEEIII

For “Hisactophilin-1 wild type (from UniProt P13231)”, the denaturant m value (5 °C) was 2.66 kcal/mol/M, the “denaturant midpoint (higher = more stable)” value (from here on “denaturant midpoint”) (5 °C) was 2.14 M and the unfolding free energy (5 °C) was 5.37 kcal/mol. The denaturant m value (15 °C) was 2.7 kcal/mol/M, the “denaturant midpoint” value (15 °C) was 2.58 M and the unfolding free energy (15 °C) was 6.5 kcal/mol. The denaturant m value (20 °C) was 2.53 kcal/mol/M, the “denaturant midpoint” value (20 °C) was 2.89 M and the unfolding free energy (20 °C) was 6.71 kcal/mol. The denaturant m value (25 °C) was 2.51 kcal/mol/M, the “denaturant midpoint” value (25 °C) was 2.91 M and the unfolding free energy (25 °C) was 6.68 kcal/mol. For the same substance, the denaturant m value (30 °C) was 2.28 kcal/mol/M, the “denaturant midpoint” value (30 °C) was 2.95 M and the unfolding free energy (30 °C) was 6.08 kcal/mol. The denaturant m value (35 °C) was 2.44 kcal/mol/M, the “denaturant midpoint” value (35 °C) was 2.87 M and the unfolding free energy (35 °C) was 6.43 kcal/mol. For the same substance, the denaturant m value (40 °C) was 2.34 kcal/mol/M, the “denaturant midpoint” value (40 °C) was 2.63 M and the unfolding free energy (40 °C) was 5.67 kcal/mol. The denaturant m value (45 °C) was 2.24 kcal/mol/M, the “denaturant midpoint” value (45 °C) was 2.45 M and the unfolding free energy (45 °C) was 5.05 kcal/mol.
